In the RNAGym collection of RNA variant scans (doi:10.7554/elife.80360):

B1: Hairpin Ribozyme (parent)
chain: GUCCUCUUUCACGUGCGCGUGAAAGAGAGAAGUGAACCAGAGAAACACACGUUGUGGUAUAUUACCUGGUA

Variants of: B1
Test: self-cleavage, relative activity (ratio to wild type); higher = more cleavage; co-transcriptional
Work on A22U C48A yielded a self-cleavage of 0.16.
A23C C46G showed a self-cleavage of 0.092.
Work on A22C A71G yielded a self-cleavage of 0.945.
With A22C A71U the self-cleavage was 0.685.
For A22C G34A, the self-cleavage was 1.04.
In the case of A22C G34U, the self-cleavage is reported as 1.49.
In the case of A22C G34C, the self-cleavage is reported as 1.22.
In the case of A22G G32C, the self-cleavage is reported as 0.0859.
Variant A22C A45U has a self-cleavage of 0.108.
Work on A22C A45C yielded a self-cleavage of 0.128.
Work on A23C A64G yielded a self-cleavage of 0.646.
For G21U A26C, the self-cleavage was 0.123.
Work on A22C G42C yielded a self-cleavage of 0.291.
With A23G U58A the self-cleavage was 0.662.
G21U A35U showed a self-cleavage of 0.626.
Work on G21U A35C yielded a self-cleavage of 0.841.
With A22G G40A the self-cleavage was 0.272.
Variant A22G G40C has a self-cleavage of 0.146.
Variant A22G A45G has a self-cleavage of 0.115.
In the case of A22G A45U, the self-cleavage is reported as 0.268.
Work on G21C C50G yielded a self-cleavage of 0.278.
With A22U A41U the self-cleavage was 1.14.
Work on A22U A41G yielded a self-cleavage of 0.776.
G21U C37U showed a self-cleavage of 0.373.
A23C G57A gave a self-cleavage of 0.196.
Work on A23G G29C yielded a self-cleavage of 0.123.
A23G G29A showed a self-cleavage of 0.0583.
Variant A23G G69C has a self-cleavage of 0.303.
In the case of A23C G54C, the self-cleavage is reported as 0.337.
G21U A49C showed a self-cleavage of 0.219.
With A23C A61C the self-cleavage was 0.143.
A23C C38U showed a self-cleavage of 0.398.
For A23C C38A, the self-cleavage was 0.161.
In the case of A23C A28C, the self-cleavage is reported as 0.349.
For A23C A28G, the self-cleavage was 0.977.
Variant A22U U60G has a self-cleavage of 0.611.
For A22U U60C, the self-cleavage was 0.719.
A22U A24G showed a self-cleavage of 0.76.
For A22C A24U, the self-cleavage was 0.485.
Work on A23C G29C yielded a self-cleavage of 0.126.
In the case of G21U U67C, the self-cleavage is reported as 0.23.
In the case of G21U A61U, the self-cleavage is reported as 0.202.
Work on G21C A47U yielded a self-cleavage of 0.181.
With G21C A47C the self-cleavage was 0.254.
In the case of A22G G25C, the self-cleavage is reported as 0.547.
Work on G21C C46G yielded a self-cleavage of 0.162.
For A22U G68A, the self-cleavage was 0.389.
A22U G68U gave a self-cleavage of 0.188.
G21U U52C showed a self-cleavage of 0.764.
For G21U U52A, the self-cleavage was 0.806.
G21C U63G showed a self-cleavage of 0.191.
G21C U63A showed a self-cleavage of 0.0855.
For A23C C65A, the self-cleavage was 0.818.
Work on A23C C65U yielded a self-cleavage of 0.282.
Variant A23G U55G has a self-cleavage of 0.192.
A23G U63G showed a self-cleavage of 0.338.
In the case of A22C G54C, the self-cleavage is reported as 0.317.
Variant A22U C38U has a self-cleavage of 0.41.
A22U C38A showed a self-cleavage of 0.155.
For A22C C66G, the self-cleavage was 0.0576.
In the case of G21C G32U, the self-cleavage is reported as 0.0815.
For G21C G32A, the self-cleavage was 0.141.
A23C A47G gave a self-cleavage of 0.132.
For A22C G69U, the self-cleavage was 0.152.
With A22C G69A the self-cleavage was 0.448.
For A23G U62C, the self-cleavage was 0.43.
Work on A23G U62G yielded a self-cleavage of 0.0705.
Variant G21U A44U has a self-cleavage of 0.165.
Variant A22U G29A has a self-cleavage of 0.13.
A23G G27C gave a self-cleavage of 0.149.
A23U A36G showed a self-cleavage of 0.681.
A23U A26G showed a self-cleavage of 0.88.
A22C G32U gave a self-cleavage of 0.107.
A22C G32A showed a self-cleavage of 0.178.
Work on A22C G32C yielded a self-cleavage of 0.106.
With A23G U60G the self-cleavage was 0.516.
In the case of A23G U60C, the self-cleavage is reported as 0.924.
With A22U G25U the self-cleavage was 0.253.
Variant G21U G27C has a self-cleavage of 0.172.
Work on A22G C38U yielded a self-cleavage of 0.589.
Work on A22G C38G yielded a self-cleavage of 0.185.
With A23G C46G the self-cleavage was 0.245.
With A23G C46A the self-cleavage was 0.132.
In the case of A23C A36C, the self-cleavage is reported as 0.286.
With A23C A36U the self-cleavage was 0.475.
A23G C66U showed a self-cleavage of 0.456.
Work on A22G U60G yielded a self-cleavage of 0.416.
Variant A22G U60C has a self-cleavage of 0.899.
A22G C66A gave a self-cleavage of 0.172.
Work on A22G C66U yielded a self-cleavage of 0.453.
Variant A23C A45G has a self-cleavage of 0.173.
For A23G C48U, the self-cleavage was 0.232.
With A23G A28G the self-cleavage was 1.23.
Variant A23G has a self-cleavage of 0.851.
Variant A23C has a self-cleavage of 0.822.
A23U showed a self-cleavage of 0.852.
For A22C U70G, the self-cleavage was 0.763.
With A22C A43U the self-cleavage was 0.15.
G21C A64G gave a self-cleavage of 0.564.
In the case of A22G G51C, the self-cleavage is reported as 0.745.
Work on G21C U53A yielded a self-cleavage of 0.671.
With A22G A24C the self-cleavage was 0.705.
With A23C G27A the self-cleavage was 0.464.
A23C G27C gave a self-cleavage of 0.187.
For A22U C37U, the self-cleavage was 0.443.
A22U C37A showed a self-cleavage of 0.352.
In the case of A23C U33G, the self-cleavage is reported as 0.171.
In the case of A23C U33C, the self-cleavage is reported as 0.307.
A23C A39G showed a self-cleavage of 0.248.
Variant A22C A28U has a self-cleavage of 0.504.
Variant A22C A28C has a self-cleavage of 0.386.
In the case of A22C A36C, the self-cleavage is reported as 0.559.
A22C A36U gave a self-cleavage of 0.581.
Variant A23G G54C has a self-cleavage of 0.363.
Variant A23G G54U has a self-cleavage of 0.586.
With G21U G51U the self-cleavage was 0.992.
G21U U53G showed a self-cleavage of 0.907.
Variant G21U U53C has a self-cleavage of 0.85.
With A23G U53C the self-cleavage was 0.995.
A23G G32C showed a self-cleavage of 0.163.
Variant A23G G32U has a self-cleavage of 0.0923.
In the case of A22C G40U, the self-cleavage is reported as 0.19.
Variant A22U G34A has a self-cleavage of 1.24.
In the case of A22U A71C, the self-cleavage is reported as 1.37.
A23G G56C gave a self-cleavage of 0.145.
In the case of A23G G56U, the self-cleavage is reported as 0.162.
With A22G U53C the self-cleavage was 0.817.
G21U A47U showed a self-cleavage of 0.123.
With A23G U70C the self-cleavage was 0.934.
A22U G42A showed a self-cleavage of 0.264.
With A22C A39G the self-cleavage was 0.362.
Variant A22C A39C has a self-cleavage of 0.539.
With A23G A59C the self-cleavage was 0.0706.
With G21U G40U the self-cleavage was 0.147.
G21U G40A gave a self-cleavage of 0.309.
Variant G21C G29U has a self-cleavage of 0.316.
A23C G40C gave a self-cleavage of 0.0333.
Variant A22U A44C has a self-cleavage of 0.239.
Work on A22U A44G yielded a self-cleavage of 0.113.
Variant G21U U63A has a self-cleavage of 0.105.
In the case of G21C A35C, the self-cleavage is reported as 0.748.
A22C A64U gave a self-cleavage of 0.251.
A22C A64C gave a self-cleavage of 0.101.
Work on A22C A47U yielded a self-cleavage of 0.208.
A22C A47G gave a self-cleavage of 0.187.
Variant A22C A47C has a self-cleavage of 0.24.
A22C C46U showed a self-cleavage of 0.141.
A22C C46G showed a self-cleavage of 0.187.
A23C U62G showed a self-cleavage of 0.0867.
For A22G G69C, the self-cleavage was 0.209.
For A23G A44C, the self-cleavage was 0.0975.
In the case of A23C G25A, the self-cleavage is reported as 0.235.
With A23G G34C the self-cleavage was 1.07.
A22G U33A gave a self-cleavage of 0.115.
In the case of A22G U33C, the self-cleavage is reported as 0.192.
With G21U A22G the self-cleavage was 0.736.
In the case of G21U A22C, the self-cleavage is reported as 0.763.
In the case of G21U A30C, the self-cleavage is reported as 0.232.
Work on G21C C38U yielded a self-cleavage of 0.452.
A22U A30G gave a self-cleavage of 0.159.
A23C C66U gave a self-cleavage of 0.448.
With A23C C66A the self-cleavage was 0.218.
Work on A22G U62A yielded a self-cleavage of 0.189.
Variant A22G U62G has a self-cleavage of 0.122.
Work on G21C A71C yielded a self-cleavage of 1.12.
Work on G21U U33C yielded a self-cleavage of 0.192.
Variant A23G C65U has a self-cleavage of 0.349.
